This is an account of results in publication PMC8949118, “The Transcription Factor SpoVG Is of Major Importance for Biofilm Formation of Staphylococcus epidermidis under In Vitro Conditions, but Dispensable for In Vivo Biofilm Formation”.

Series [1] concerns the target T1, HAT-HA-SpoVG (Staphylococcus epidermidis 1457, UniProt Q8CML1 1-102).
T1 sequence: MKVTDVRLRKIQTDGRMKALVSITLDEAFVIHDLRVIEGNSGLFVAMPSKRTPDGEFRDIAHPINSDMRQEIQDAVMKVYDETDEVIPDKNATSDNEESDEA
Nature of the series: EMSA; 12 uM SpoVG, 2 mM Mg2+; 20 mM HEPES pH 8.0, 10 mM KCl, 2 mM MgCl2, 0.1 mM EDTA, 0.1 mM DTT, 50 ug/mL BSA, 10% glycerol; 200 fmol probe in 20 uL; 30 min room temperature; 2.5% agarose gel in cold TAE. Conditions: protein: recombinant; tags: N-terminal HAT-HA-linker; label: DYE682; blunt. On the technique in general: A gel shift assay detects complexes by their altered migration in electrophoresis.

Series [2] addresses T1, HAT-HA-SpoVG. Nature of the series: EMSA; 2-12 uM SpoVG, 2 mM Mg2+; 20 mM HEPES pH 8.0, 10 mM KCl, 2 mM MgCl2, 0.1 mM EDTA, 0.1 mM DTT, 50 ug/mL BSA, 10% glycerol; 200 fmol probe in 20 uL; 30 min room temperature; 2.5% agarose gel in cold TAE. Conditions: protein: recombinant; tags: N-terminal HAT-HA-linker; label: DYE682; blunt.
Series [3] has as its target T1, HAT-HA-SpoVG. The series is described as follows: competition EMSA; 10x or 20x excess over labeled icaA probe; 20 mM HEPES pH 8.0, 10 mM KCl, 2 mM MgCl2, 0.1 mM EDTA, 0.1 mM DTT, 50 ug/mL BSA, 10% glycerol; 200 fmol probe in 20 uL; 30 min room temperature; 2.5% agarose gel in cold TAE. Conditions: protein: recombinant; tags: N-terminal HAT-HA-linker; blunt.

B1: secA p control probe (dsDNA)
DNA 1: AGTATAATTTTCTAACTATAAATGATAAGATATATTGTTGTAGGCCAAACAGTTTTTTAGCTAAAGGAGCGAACGAAATG
DNA 2: CATTTCGTTCGCTCCTTTAGCTAAAAAACTGTTTGGCCTACAACAATATATCTTATCATTTATAGTTAGAAAATTATACT
Consider B1, for which the binding result in series [1] was “no binding”.

B2: icaA probe (dsDNA)
DNA 1: TAACAACATTCTATTGCAAATTGAAATACTTTCGATTAGCATATGCTTTACAACCTAACTAACGAAAGGTAGGTGAAAAA
DNA 2: TTTTTCACCTACCTTTCGTTAGTTAGGTTGTAAAGCATATGCTAATCGAAAGTATTTCAATTTGCAATAGAATGTTGTTA
As to B2, the binding result in series [2] is reported as “binds”.

B3: unlabeled icaA probe (dsDNA)
DNA 1: TAACAACATTCTATTGCAAATTGAAATACTTTCGATTAGCATATGCTTTACAACCTAACTAACGAAAGGTAGGTGAAAAA
DNA 2: TTTTTCACCTACCTTTCGTTAGTTAGGTTGTAAAGCATATGCTAATCGAAAGTATTTCAATTTGCAATAGAATGTTGTTA
Take B3: in series [3], the binding result is on record as “binds”.
